Biological target: the molecule itself
Assay: SEC; 100 μg tag-free cjDapE on Superdex 200 10/300, 20 mM Tris pH 8.0, 150 mM NaCl, 5 mM β-mercaptoethanol; size by calibration with gel-filtration standards

B1: Campylobacter jejuni DapE (N-succinyl-L,L-diaminopimelic acid desuccinylase) (enzyme, UniProt Q0P9K4 1-365, looked up)
chain: MNAKEFLIELLKFKSVTPNDDGALNFIAMELSDFEAFFIEKEGIKNLLLTKKFKDEGEHLAFGGHVDVVPAGEGWSNNAFAPVEKEGFIYARGAQDMKSGVAAFVDAAKNADFKGARLSLILTSDEEGEAIYGTKAVLEWMQERDMLPDYAVVAEPTCVKKIGDSIKIGRRGSINGKLLIRGKQGHVAYPEKCINPVHDFAPVLKLLAGFDLDPGSAEFSPSKIVITDIRGGMGVCNVTPNDLKLMFNVRNSPDTSLEDVKSYVEKICHGLNYELELKQSSEAFLTNIDNKIVQKMNESVQKITHEVPELNTKGGTSDARYFAKYGVKVVEFGVCNDRIHAIDERVSIEEFEKLCLVFKDLIENF
notes: DapE of Campylobacter jejuni (ATCC 33291 genomic DNA), gene dapE (cj1048c), 365-residue protein, residues 1-365; in one crystal also captopril; The His6 tag was removed with thrombin; also called cjDapE; cjDapEZn; source: E. coli BL21 (DE3), purified (Ni-NTA, thrombin cleavage, Mono Q anion exchange); not shown: His6, N-terminal, cleaved
Q: With B1 as the protein, how does the “stoichiometry N” value read?
A: Its value is 2.
